Experimental data taken from patent US4374928A, “Novel reductase” (Hoffmann-La Roche Inc., priority 1981, dated 1983).

B1: L12-transacetylase: Partially purified E. coli Q13 enzyme that acetylates the amino terminal serine of Met-L12 to form acetyl-Met-L12 (L7) (protein, UniProt P13857 1-179, looked up)
Ribosomal-protein-serine …: MTETIKVSESLELHAVAENHVKPLYQLICKNKTWLQQSLNWPQFVQSEEDTRKTVQGNVMLHQRGYAKMFMIFKEDELIGVISFNRIEPLNKTAEIGYWLDESHQGQGIISQALQALIHHYAQSGELRRFVIKCRVDNPQSNQVALRNGFILEGCLKQAEFLNDAYDDVNLYARIIDSQ
modifications: partially purified

How the values were obtained:
[1] = target: T1, peptide MetSO reductase (Escherichia coli, UniProt P0A744); experiment: Inhibition of the reduction of MetSO-L12 by excess free MetSO; format: biochemical, E. coli; details: 1×10^-4 M MetSO, about 60 times the concentration of MetSO-L12; read-out: inhibition of the enzymatic activity of peptide MetSO reductase
T1 construct: made in house; host or cells: E. coli Z19 cells (endogenous enzyme, not recombinant; ammonium sulfate, DE-52, Ultrogel AcA-44, DEAE-Sephadex)
T1 sequence (P0A744 2-212): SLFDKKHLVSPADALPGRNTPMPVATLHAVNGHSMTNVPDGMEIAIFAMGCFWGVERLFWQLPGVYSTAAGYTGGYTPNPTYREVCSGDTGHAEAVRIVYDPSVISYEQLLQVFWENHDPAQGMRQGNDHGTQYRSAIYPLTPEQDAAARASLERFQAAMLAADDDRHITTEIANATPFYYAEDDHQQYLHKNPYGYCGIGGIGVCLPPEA
Description: The assay for the reduction of MetSO-L12 to L12 is based on the ability of L12-transacetylase to specifically acetylate the amino terminal serine of Met-L12 to form acetyl-Met-L12, i.e. L7. A two-step incubation was used. […] After a 60 min incubation at 37°, the reaction mixtures were placed on ice and to each reaction mixture were added 2 μmol of sodium arsenite, 1.2 μg partially purified L12-transacetylase (see below) and [^3 H] acetyl-CoA (935 pmoles, 237 cpm/pmol) and the volume brought to 50 μl. The second incubation (acetylation reaction) was for 5 min at 37°, after which the reaction mixtures were diluted with 3 ml of cold buffer A and filtered through a nitrocellulose filter. The filters were washed with 10 ml of this same buffer, dissolved in scintillation fluid and the radioactivity determined. Under these conditions L12 and acetyl-L12 are quantitatively retained by the nitrocellulose filter. The results are reported as pmoles of acetyl-L12 formed under these conditions.

[2] = system: Met-L12; experiment: L12-transacetylase assay: acetylation of Met-L12; format: biochemical, E. coli
Description: The fractions containing the enzyme activity were pooled (750 mg), concentrated and applied to a hydroxyapatite column (2×15 cm) equilibrated with a buffer containing 25 mM KPO4, pH 6.9, 1 mM β-mercaptoethanol and 10% glycerol. The column was eluted with a gradient from 25 mM to 250 mM KPO4, pH 6.9, containing 1 mM β-mercaptoethanol and 10% glycerol and the fractions containing enzymatic avtivity were pooled and concentrated (72 mg). This procedure yielded a 225 fold purification of the enzyme. Under standard conditions of assay as set forth by Brot and Weissbach [Biochem. Biophys. Res. Commun. 49, 673 (1972)] this fraction acetylated 46 nmols of Met-L12 per mg protein in 5 min. […] These properties are essential in order to use the enzymatic acetylation of Met-L12 as an assay for MetSO-L12 reduction. It was seen that at all concentrations of Met-L12, only one-third of the protein is acetylated.

Molecule | inhibition at 100 µM [1] [%] | MetSO-L12 as substrate for acetylation [2] | fraction of Met-L12 acetylated ([2]; at all concentrations of Met-L12) | Met-L12 acetylated ([2]; in 5 min, standard conditions of assay, hydroxyapatite fraction) [nmols per mg protein]
C[S+]([O-])CC[C@H](N)C(=O)O (stereo partly shown) [MetSO, methionine sulfoxide] | < 20 |  |  | 
B1 |  | not a substrate | one-third | 46
